Blank lines part the entries; values can stand above or below the binder they belong to.
Columns and labels:
[1] = biological target: CD95L (FasL, Peprotech) (UniProt P48023); test: SPR; Biacore T200, 25 °C; CM5 chip coated with 140 RU of FasL (Peprotech); sCD95 or sCD95-Δ58 injected in triplicate at 25 µl/min in 10 mM Na2HPO4, 150 mM NaCl, 3 mM EDTA, 0.05% Tween-20, pH 7.4; Langmuir 1:1 fit, KD = kd/ka
[2] = biological target: T1, CD95L (FasL, Peprotech) (UniProt P48023 130-281); test: SPR
T1 chain: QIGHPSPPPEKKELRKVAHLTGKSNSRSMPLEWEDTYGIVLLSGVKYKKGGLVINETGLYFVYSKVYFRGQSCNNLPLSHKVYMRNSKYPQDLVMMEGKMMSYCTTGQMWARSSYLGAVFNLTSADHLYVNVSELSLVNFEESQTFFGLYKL

[3] = biological target: the molecule itself; test: SEC; supernatants of sCD95-secreting HEK/293T cells on Superdex 200 Prep Grade (XK 16/70) in PBS, 1 mL/min, 1 mL fractions; CD95 in each fraction dosed by ELISA; native molecular markers
[4] = biological target: soluble full-length extracellular domain of CD95 (sCD95); test: as above

B2: soluble Δ36-truncated extracellular domain of CD95 (sCD95-Δ36) (domain or fragment, UniProt P25445 37-173, looked up)
chain: LRKTVTTVETQNLEGLHHDGQFCHKPCPPGERKARDCTVNGDEPDCVPCQEGKEYTDKAHFSSKCRRCRLCDEGHGLEVEINCTRTQNTKCRCKPNFFCNSTVCEHCDPCTKCEHGIIKECTLTSNTKCKEEGSRSN
notes: CD95 (Fas), a.a; 37-173 of the 335-residue precursor; pcDNA3.1(+); also called Δ36-CD95; MMP7-cleaved form; source: HEK/293T, transfected (calcium/phosphate), secreted into serum-deprived Opti-MEM; supernatant ultracentrifuged
stoichiometry N [3]: 2

B4: soluble extracellular domain of CD95 with K33G (sCD95-K33G) (domain or fragment, UniProt P25445 17-173, looked up)
chain: RLSSKSVNAQVTDINSGGLELRKTVTTVETQNLEGLHHDGQFCHKPCPPGERKARDCTVNGDEPDCVPCQEGKEYTDKAHFSSKCRRCRLCDEGHGLEVEINCTRTQNTKCRCKPNFFCNSTVCEHCDPCTKCEHGIIKECTLTSNTKCKEEGSRSN
notes: CD95 (Fas), a.a; 17-173 of the 335-residue precursor, AAG codon (K) replaced by GGG (G); pcDNA3.1(+); also called soluble K33G CD95 mutant; source: HEK/293T, transfected (calcium/phosphate), secreted into serum-deprived Opti-MEM; supernatant ultracentrifuged
stoichiometry N [3]: 3

More lines, now with the values ahead:

Kd [1]: 2.5 nM | koff [2]: 0.0011 s⁻¹
B1: soluble Δ58-truncated extracellular domain of CD95 (sCD95-Δ58) (domain or fragment)
chain: CHKPCPPGERKARDCTVNGDEPDCVPCQEGKEYTDKAHFSSKCRRCRLCDEGHGLEVEINCTRTQNTKCRCKPNFFCNSTVCEHCDPCTKCEHGIIKECTLTSNTKCKEEGSRSNL

percent of homotrimer [4]: 27% | percent of monomer [4]: 20% | percent of the protein in the dimer fractions [4]: 44% | stoichiometry N [4]: 2 | Kd [1]: 2 nM | koff [2]: 0.0011 s⁻¹
B3: soluble full-length extracellular domain of CD95 (sCD95) (domain or fragment)
chain: RLSSKSVNAQVTDINSKGLELRKTVTTVETQNLEGLHHDGQFCHKPCPPGERKARDCTVNGDEPDCVPCQEGKEYTDKAHFSSKCRRCRLCDEGHGLEVEINCTRTQNTKCRCKPNFFCNSTVCEHCDPCTKCEHGIIKECTLTSNTKCKEEGSRSNL
modifications: N-glycosylated
